Assay in all cases: purified protein
In one series the test system is Cc1ccc([S@@+](C)[O-])cc1. Particulars: 20 uM rTrx, 5 uM rTrxR, 0.2 mM NADPH, 50 mM sodium phosphate pH 7.5, 37 °C, MsrB domain.
For the next series, the system named is Cc1ccc([S+](C)[O-])cc1. Particulars: 20 uM rTrx, 5 uM rTrxR, 0.2 mM NADPH, 50 mM sodium phosphate pH 7.5, 37 °C, racemate, both domains.
Another series relates to Cc1ccc([S@+](C)[O-])cc1. Particulars: 20 uM rTrx, 5 uM rTrxR, 0.2 mM NADPH, 50 mM sodium phosphate pH 7.5, 37 °C, MsrA domain.

The values below come from PMC9404787, “The Peptide Methionine Sulfoxide Reductase (MsrAB) of Haemophilus influenzae Repairs Oxidatively Damaged Outer Membrane and Periplasmic Proteins Involved in Nutrient Acquisition and Virulence” (Antioxidants, 2022).

What is called Km is the concentration of substrate that gives half-maximal velocity. The Vmax is the top rate of the reaction or transport when substrate is in excess. The kcat is the number of substrate molecules converted per active site and unit of time at saturation. One may read the kcat/Km as the turnover number divided by the Michaelis constant.

As for rMsrAB (Haemophilus influenzae Rd KW20), in the series with Cc1ccc([S@@+](C)[O-])cc1, the Km came out at 2310 ± 350 µM, the Vmax stood at 0.26 µmol/min/mg, the kcat was found to be 0.156 ± 0.06 s⁻¹ and the kcat/Km came out at 67.5 M⁻¹ s⁻¹. In the series with Cc1ccc([S+](C)[O-])cc1, the Km stood at 2960 ± 440 µM, the Vmax is 0.34 µmol/min/mg, the kcat amounted to 0.204 ± 0.06 s⁻¹ and the kcat/Km was determined as 68.9 M⁻¹ s⁻¹. In the series on Cc1ccc([S@+](C)[O-])cc1, the Michaelis-Menten constant (Km) amounted to 3620 ± 550 µM, the Vmax came to 0.52 µmol/min/mg, the kcat turned out to be 0.312 ± 0.12 s⁻¹ and the kcat/Km came to 86.1 M⁻¹ s⁻¹.
